Results: patent publication US20090099029

T1: Bovine, dephosphorylated, Myelin Basic Protein (MBP), P02687
T1 chain: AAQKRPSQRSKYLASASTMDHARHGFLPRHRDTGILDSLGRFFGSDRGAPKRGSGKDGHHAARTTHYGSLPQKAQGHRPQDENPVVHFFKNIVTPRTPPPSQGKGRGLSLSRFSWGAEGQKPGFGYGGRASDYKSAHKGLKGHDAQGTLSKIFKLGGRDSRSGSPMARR


Molecular target: T1, Bovine, dephosphorylated, Myelin Basic …

Protein | MBP Kinase Activity
PDGFRA (protein) KQKPRYEIRWRVIESISPDGHEYIYVDPMQLPYDSRWEFPRDGLVLGRVLGSGAFGKVVEGTAYGLSRSQPVMKVAVKMLKPTARSSEKQALMSELKIMTHLGPHLNIVNLLGACTKSGPIYIITEYCFYGDLVNYLHKNRDSFLSHHPEKPKKELDIFGLNPADESTRSYVILSFENNGDYMDMKQADTTQYVPMLERKEVSKYSDIQRSLYDRPASYKKKSMLDSEVKNLLSDDNSEGLTLLDLLSFTYQVARGMEFLASKNCVHRDLAARNVLLAQGKIVKICDFGLARDIMHDSNYVSKGSTFLPVKWMAPESIFDNLYTTLSDVWSYGILLWEIFSLGGTPYPGMMVDSTFYNKIKSGYRMAKPDHATSEVYEIMVKCWNSEPEKRPSFYHLSEIVENLLPGQYKKSYEKIHLDFLKSDHPAVARMRVDSDNAYIGVTYKNEEDKLKDWEGGLDEQRLSADSGYIIPLPDIDPVPEEEDLGKRNRHSSQTSEESAIETGSSSSTFIKREDETIEDIDMMDDIGIDSSDLVEDSFL | Strong
PDGFRA, T674I (protein) KQKPRYEIRWRVIESISPDGHEYIYVDPMQLPYDSRWEFPRDGLVLGRVLGSGAFGKVVEGTAYGLSRSQPVMKVAVKMLKPTARSSEKQALMSELKIMTHLGPHLNIVNLLGACTKSGPIYIIIEYCFYGDLVNYLHKNRDSFLSHHPEKPKKELDIFGLNPADESTRSYVILSFENNGDYMDMKQADTTQYVPMLERKEVSKYSDIQRSLYDRPASYKKKSMLDSEVKNLLSDDNSEGLTLLDLLSFTYQVARGMEFLASKNCVHRDLAARNVLLAQGKIVKICDFGLARDIMHDSNYVSKGSTFLPVKWMAPESIFDNLYTTLSDVWSYGILLWEIFSLGGTPYPGMMVDSTFYNKIKSGYRMAKPDHATSEVYEIMVKCWNSEPEKRPSFYHLSEIVENLLPGQYKKSYEKIHLDFLKSDHPAVARMRVDSDNAYIGVTYKNEEDKLKDWEGGLDEQRLSADSGYIIPLPDIDPVPEEEDLGKRNRHSSQTSEESAIETGSSSSTFIKREDETIEDIDMMDDIGIDSSDLVEDSFL | Negative
CSF1R (protein) YKYKQKPKYQVRWKIIESYEGNSYTFIDPTQLPYNEKWEFPRNNLQFGKTLGAGAFGKVVEATAFGLGKEDAVLKVAVKMLKSTAHADEKEALMSELKIMSHLGQHENIVNLLGACTHGGPVLVITEYCCYGDLLNFLRRKAEAMLGPSLSPGQDPEGGVDYKNIHLEKKYVRRDSGFSSQGVDTYVEMRPVSTSSNDSFSEQDLDKEDGRPLELRDLLHFSSQVAQGMAFLASKNCIHRDVAARNVLLTNGHVAKIGDFGLARDIMNDSNYIVKGNARLPVKWMAPESIFDCVYTVQSDVWSYGILLWEIFSLGLNPYPGILVNSKFYKLVKDGYQMAQPAFAPKNIYSIMQACWALEPTHRPTFQQICSFLQEQAQEDRRERDYTNLPSSSRSGGSGSSSSELEEESSSEHLTCCEQGDIAQPLLQPNNYQFC | Strong
INSRR (protein) YGKKRNRTLYASVNPEYFSASDMYVPDEWEVPREQISIIRELGQGSFGMVYEGLARGLEAGEESTPVALKTVNELASPRECIEFLKEASVMKAFKCHHVVRLLGVVSQGQPTLVIMELMTRGDLKSHLRSLRPEAENNPGLPQPALGEMIQMAGEIADGMAYLAANKFVHRDLAARNCMVSQDFTVKIGDFGMTRDVYETDYYRKGGKGLLPVRWMAPESLKDGIFTTHSDVWSFGVVLWEIVTLAEQPYQGLSNEQVLKFVMDGGVLEELEGCPLQLQELMSRCWQPNPRLRPSFTHILDSIQEELRPSFRLLSFYYSPECRGARGSLPTTDAEPDSSPTPRDCSPQNGGPGH | Negative
KIT (protein) TYKYLQKPMYEVQWKVVEEINGNNYVYIDPTQLPYDHKWEFPRNRLSFGKTLGAGAFGKVVEATAYGLIKSDAAMTVAVKMLKPSAHLTEREALMSELKVLSYLGNHMNIVNLLGACTIGGPTLVITEYCCYGDLLNFLRRKRDSFICSKQEDHAEAALYKNLLHSKESSCSDSTNEYMDMKPGVSYVVPTKADKRRSVRIGSYIERDVTPAIMEDDELALDLEDLLSFSYQVAKGMAFLASKNCIHRDLAARNILLTHGRITKICDFGLARDIKNDSNYVVKGNARLPVKWMAPESIFNCVYTFESDVWSYGIFLWELFSLGSSPYPGMPVDSKFYKMIKEGFRMLSPEHAPAEMYDIMKTCWDADPLKRPTFKQIVQLIEKQISESTNHIYSNLANCSPNRQKPVVDHSVRINSVGSTASSSQPLLVHDDV | Negative
MUSK (protein) CCRRRKQWKNKKRESAAVTLTTLPSELLLDRLHPNPMYQRMPLLLNPKLLSLEYPRNNIEYVRDIGEGAFGRVFQARAPGLLPYEPFTMVAVKMLKEEASADMQADFQREAALMAEFDNPNIVKLLGVCAVGKPMCLLFEYMAYGDLNEFLRSMSPHTVCSLSHSDLSMRAQVSSPGPPPLSCAEQLCIARQVAAGMAYLSERKFVHRDLATRNCLVGENMVVKIADFGLSRNIYSADYYKANENDAIPIRWMPPESIFYNRYTTESDVWAYGVVLWEIFSYGLQPYYGMAHEEVIYYVRDGNILSCPENCPVELYNLMRLCWSKLPADRPSFTSIHRILERMCERAEGTVSV | Negative
ROS1 (protein) HRRLKNQKSAKEGVTVLINEDKELAELRGLAAGVGLANACYAIHTLPTQEEIENLPAFPREKLTLRLLLGSGAFGEVYEGTAVDILGVGSGEIKVAVKTLKKGSTDQEKIEFLKEAHLMSKFNHPNILKQLGVCLLNEPQYIILELMEGGDLLTYLRKARMATFYGPLLTLVDLVDLCVDISKGCVYLERMHFIHRDLAARNCLVSVKDYTSPRIVKIGDFGLARDIYKNDYYRKRGEGLLPVRWMAPESLMDGIFTTQSDVWSFGILIWEILTLGHQPYPAHSNLDVLNYVQTGGRLEPPRNCPDDLWNLMTQCWAQEPDQRPTFHRIQDQLQLFRNFFLNSIYKSRDEANNSGVINESFEGEDGDVICLNSDDIMPVALMETKNREGLNYMVLATECGQGEEKSEGPLGSQESESCGLRKEEKEPHADKDFCQEKQVAYCPSGKPEGLNYACLTHSGYGDGSD | Strong
PDGFRB (protein) MLWQKKPRYEIRWKVIESVSSDGHEYIYVDPMQLPYDSTWELPRDQLVLGRTLGSGAFGQVVEATAHGLSHSQATMKVAVKMLKSTARSSEKQALMSELKIMSHLGPHLNVVNLLGACTKGGPIYIITEYCRYGDLVDYLHRNKHTFLQHHSDKRRPPSAELYSNALPVGLPLPSHVSLTGESDGGYMDMSKDESVDYVPMLDMKGDVKYADIESSNYMAPYDNYVPSAPERTCRATLINESPVLSYMDLVGFSYQVANGMEFLASKNCVHRDLAARNVLICEGKLVKICDFGLARDIMRDSNYISKGSTFLPLKWMAPESIFNSLYTTLSDVWSFGILLWEIFTLGGTPYPELPMNEQFYNAIKRGYRMAQPAHASDEIYEIMQKCWEEKFEIRPPFSQLVLLLERLLGEGYKKKYQQVDEEFLRSDHPAILRSQARLPGFHGLRSPLDTSSVLYTAVQPNEGDNDYIIPLPDPKPEVADEGPLEGSPSLASSTLNEVNTSSTISCDSPLEPQDEPEPEPQLELQVEPEPELEQLPDSGCPAPRAEAEDSFL | Strong
RET (protein) HCYHKFAHKPPISSAEMTFRRPAQAFPVSYSSSGARRPSLDSMENQVSVDAFKILEDPKWEFPRKNLVLGKTLGEGEFGKVVKATAFHLKGRAGYTTVAVKMLKENASPSELRDLLSEFNVLKQVNHPHVIKLYGACSQDGPLLLIVEYAKYGSLRGFLRESRKVGPGYLGSGGSRNSSSLDHPDERALTMGDLISFAWQISQGMQYLAEMKLVHRDLAARNILVAEGRKMKISDFGLSRDVYEEDSYVKRSQGRIPVKWMAIESLFDHIYTTQSDVWSFGVLLWEIVTLGGNPYPGIPPERLFNLLKTGHRMERPDNCSEEMYRLMLQCWKQEPDKRPVFADISKDLEKMMVKRRDYLDLAASTPSDSLIYDDGLSEEETPLVDCNNAPLPRALPSTWIENKLYGMSDPNWPGESPVPLTRADGTNTGFPRYPNDSVYANWMLSPSAAKLMDTFDS | Strong
MERTK (protein) KRVQETKFGNAFTEEDSELVVNYIAKKSFCRRAIELTLHSLGVSEELQNKLEDVVIDRNLLILGKILGEGEFGSVMEGNLKQEDGTSLKVAVKTMKLDNSSQREIEEFLSEAACMKDFSHPNVIRLLGVCIEMSSQGIPKPMVILPFMKYGDLHTYLLYSRLETGPKHIPLQTLLKFMVDIALGMEYLSNRNFLHRDLAARNCMLRDDMTVCVADFGLSKKIYSGDYYRQGRIAKMPVKWIAIESLADRVYTSKSDVWAFGVTMWEIATRGMTPYPGVQNHEMYDYLLHGHRLKQPEDCLDELYEIMYSCWRTDPLDRPTFSVLRLQLEKLLESLPDVRNQADVIYVNTQLLESSEGLAQGSTLAPLDLNIDPDSIIASCTPRAAISVVTAEVHDSKPHEGRYILNGGSEEWEDLTSAPSAAVTAEKNSVLPGERLVRNGVSWSHSSMLPLGSSLPDELLFADDSSEGSEVLM | Strong
IGF1R (protein) RKRNNSRLGNGVLYASVNPEYFSAADVYVPDEWEVAREKITMSRELGQGSFGMVYEGVAKGVVKDEPETRVAIKTVNEAASMRERIEFLNEASVMKEFNCHHVVRLLGVVSQGQPTLVIMELMTRGDLKSYLRSLRPEMENNPVLAPPSLSKMIQMAGEIADGMAYLNANKFVHRDLAARNCMVAEDFTVKIGDFGMTRDIYETDYYRKGGKGLLPVRWMSPESLKDGVFTTYSDVWSFGVVLWEIATLAEQPYQGLSNEQVLRFVMEGGLLDKPDNCPDMLFELMRMCWQYNPKMRPSFLEIISSIKEEMEPGFREVSFYYSEENKLPEPEELDLEPENMESVPLDPSASSSSLPLPDRHSGHKAENGPGPGVLVLRASFDERQPYAHMNGGRKNERALPLPQSSTC | Strong
MET (protein) KKRKQIKDLGSELVRYDARVHTPHLDRLVSARSVSPTTEMVSNESVDYRATFPEDQFPNSSQNGSCRQVQYPLTDMSPILTSGDSDISSPLLQNTVHIDLSALNPELVQAVQHVVIGPSSLIVHFNEVIGRGHFGCVYHGTLLDNDGKKIHCAVKSLNRITDIGEVSQFLTEGIIMKDFSHPNVLSLLGICLRSEGSPLVVLPYMKHGDLRNFIRNETHNPTVKDLIGFGLQVAKGMKYLASKKFVHRDLAARNCMLDEKFTVKVADFGLARDMYDKEYYSVHNKTGAKLPVKWMALESLQTQKFTTKSDVWSFGVLLWELMTRGAPPYPDVNTFDITVYLLQGRRLLQPEYCPDPLYEVMLKCWHPKAEMRPSFSELVSRISAIFSTFIGEHYVHVNATYVNVKCVAPYPSLLSSEDNADDEVDTRPASFWETS | Strong
